Measurements from patent US7759464.

Legend:
[1] = molecular target: monoclonal anti-idiotypic antibody MMA383; assay: sandwich ELISA on wells coated with anti-idiotypic antibody MMA383, detected with anti-human IgG+A+M peroxidase
[2] = molecular target: monoclonal anti-idiotypic antibody MMA383; assay: sandwich ELISA on wells coated with anti-idiotypic antibody MMA383; evaluated at EC50, normalized on IGN311 wt.

| Binder | Bottom (four parameter sigmoid fit) [1] | EC50 [1] [µg/mL] | Log EC50 [1] | Top (four parameter sigmoid fit) [1] | % (binding activity normalized on IGN311 wt.) [2] [%] |
| --- | --- | --- | --- | --- | --- |
| IGN311 wt. (antibody, V domains shown) VH: EVQLLESGGGLVQPGGSLRLSCAASGFTFSDYYMYWVRQAPEKRLEWVAYISNGGGSSHYVDSVKGRFTISRDNSKNTLYLQMNSLRAEDTALYHCARGMDYGAWFAYWGQGTLVTVSS VL: DIVMTQSPLSLPVTPGEPASISCRSSQSIVHSNGNTYLEWYLQKPGQSPQLLISKVSNRFSGVPDRFSGSGSGTDFTLKISRVEAEDVGVYYCFQGSHVPFTFGQGTKLEIK | 96.1 | 0.0638 | 1.8 log(ng/ml) | 2060 | 100 |
| IGN312 Glyco I (antibody, V domains shown, bi-sected hybrid type N-glycosylation pattern in the Fc region (constant part of the heavy chain, not in this VH piece)) VH: EVQLLESGGGLVQPGGSLRLSCAASGFTFSDYYMYWVRQAPEKRLEWVAYISNGGGSSHYVDSVKGRFTISRDNSKNTLYLQMNSLRAEDTALYHCARGMDYGAWFAYWGQGTLVTVSS VL: DIVMTQSPLSLPVTPGEPASISCRSSQSIVHSNGNTYLEWYLQKPGQSPQLLISKVSNRFSGVPDRFSGSGSGTDFTLKISRVEAEDVGVYYCFQGSHVPFTFGQGTKLEIK | 77 | 0.0688 | 1.84 log(ng/ml) | 2100 | 108 |
